Laboratory results: patent US20120164159A1 (OPSONA THERAPEUTICS, published 2012)

T1: rmTLR2/Fc (recombinant murine TLR-2) (Mus musculus, UniProt Q9QUN7 25-587, limits assumed)
T1 construct: Recombinant Fc fusion used as SPR analyte, MW of 98 kDa printed; also called murine receptor
T1 sequence: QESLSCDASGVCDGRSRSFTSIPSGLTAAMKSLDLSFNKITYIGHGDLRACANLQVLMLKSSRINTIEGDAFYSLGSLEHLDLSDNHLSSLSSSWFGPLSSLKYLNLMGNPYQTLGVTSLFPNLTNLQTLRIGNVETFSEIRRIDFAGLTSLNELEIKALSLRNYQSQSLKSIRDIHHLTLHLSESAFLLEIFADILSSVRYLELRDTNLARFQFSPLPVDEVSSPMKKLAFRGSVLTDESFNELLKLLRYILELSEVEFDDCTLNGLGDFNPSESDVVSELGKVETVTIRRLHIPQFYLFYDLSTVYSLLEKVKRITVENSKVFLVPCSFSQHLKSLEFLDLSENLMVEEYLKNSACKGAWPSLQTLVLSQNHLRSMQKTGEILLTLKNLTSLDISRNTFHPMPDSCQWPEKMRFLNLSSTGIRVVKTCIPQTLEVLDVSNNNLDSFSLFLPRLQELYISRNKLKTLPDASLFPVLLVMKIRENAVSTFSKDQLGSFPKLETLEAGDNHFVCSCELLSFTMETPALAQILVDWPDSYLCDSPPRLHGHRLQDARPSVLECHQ


Legend:
[1] = biological target: T2, monkey Toll-like Receptor 2 expressed on cynomologus monkey whole blood cells (granulocytes, monocytes) (cynomologus monkey, UniProt Q95M53 19-784); assay: FACS, cynomolgus whole blood, gate Granulocytes (R3), OPN305 + FITC mouse anti-hIgG4 [A]
T2 construct: whole, on cells; also called monkey TLR2

[2] = biological target: T1, rmTLR2/Fc (recombinant murine TLR-2); assay: SPR, Biacore T100, antibody amine-coupled to CM5 chip, receptor as analyte, bivalent binding model, 25 C
Method: (§1) Upon insertion of the CM5 chip the system was primed and then normalised with BIAnormalising solution (Biacore Preventative Maintenance Kit 2). All samples were run at 25° C. with a sample rack incubated at 25° C. unless stated. The chip was added to the system with HBS-EP used as the running buffer. The chip surface was primed with two 30 second injections of 50 mM NaOH then left until a stable baseline was obtained in all the Flow cells (Fcs).
(§2) All antibodies were immobilised using standard amine coupling chemistry. Immobilisation was carried out at a protein concentration of around 1 μg.ml-1 in 10 mM Acetate buffer pH5.5 to a target response level of 150RUs on three CM5 Series S sensor chips. Kinetic data was obtained at a flow rate of 40 μl·min-1 to minimise any potential mass transfer effects. The blank (no receptor) and a single concentration of the analytes (100 nM) was repeated at the start of the kinetic runs in order to check the stability of both the surface and two receptors over the kinetic analyses. Two repeats of the kinetic analysis were carried out and the results compared.
(§3) Association rates (Kₒₙ) and dissociation rates (Koff) were calculated using a bivalent binding model (BIAcore Evaluation Software version 3.2). The equilibrium dissociation constant (Ko) was calculated as the ratio […].

[3] = biological target: T3, rhTLR-2 (recombinant human TLR-2) (human, UniProt O60603 21-588, limits assumed); assay: as above
T3 construct: Soluble recombinant protein reconstituted from dry powder, used as SPR analyte; also called glycosylated human receptor analyte
Method: as §1, §2, §3

[4] = biological target: T2, monkey Toll-like Receptor 2 expressed …; assay: FACS, cynomolgus whole blood, gate Granulocytes (R3), biotinylated OPN301, detection SA-PECy7 [A]
Method: Cells were then washed and incubated with streptavidin conjugated to PECy7 for a further 30 minutes.
Binding was measured using FACScalibur from Becton Dickinson. FIG. 14A relates to granulocytes. FIG. 14B relates to monocytes. FIG. 14C relates to lymphocytes. […] Accordingly, it can again be seen that OPN305 is competing for monkey Toll-like Receptor 2 binding.

T3 sequence (O60603 21-588 limits assumed): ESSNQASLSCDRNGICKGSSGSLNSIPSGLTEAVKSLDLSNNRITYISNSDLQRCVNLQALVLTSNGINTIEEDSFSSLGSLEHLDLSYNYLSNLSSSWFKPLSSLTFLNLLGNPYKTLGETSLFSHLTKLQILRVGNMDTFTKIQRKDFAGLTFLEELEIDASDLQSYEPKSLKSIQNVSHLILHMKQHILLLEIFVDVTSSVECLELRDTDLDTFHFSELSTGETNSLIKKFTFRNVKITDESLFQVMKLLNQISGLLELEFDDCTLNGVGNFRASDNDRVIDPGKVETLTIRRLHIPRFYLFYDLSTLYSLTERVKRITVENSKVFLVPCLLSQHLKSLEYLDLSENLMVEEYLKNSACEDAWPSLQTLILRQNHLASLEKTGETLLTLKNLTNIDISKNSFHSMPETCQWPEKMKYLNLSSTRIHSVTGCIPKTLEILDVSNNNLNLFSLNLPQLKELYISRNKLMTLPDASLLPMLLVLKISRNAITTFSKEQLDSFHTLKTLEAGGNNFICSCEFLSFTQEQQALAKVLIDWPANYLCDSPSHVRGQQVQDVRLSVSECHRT
T2 sequence (Q95M53 19-784): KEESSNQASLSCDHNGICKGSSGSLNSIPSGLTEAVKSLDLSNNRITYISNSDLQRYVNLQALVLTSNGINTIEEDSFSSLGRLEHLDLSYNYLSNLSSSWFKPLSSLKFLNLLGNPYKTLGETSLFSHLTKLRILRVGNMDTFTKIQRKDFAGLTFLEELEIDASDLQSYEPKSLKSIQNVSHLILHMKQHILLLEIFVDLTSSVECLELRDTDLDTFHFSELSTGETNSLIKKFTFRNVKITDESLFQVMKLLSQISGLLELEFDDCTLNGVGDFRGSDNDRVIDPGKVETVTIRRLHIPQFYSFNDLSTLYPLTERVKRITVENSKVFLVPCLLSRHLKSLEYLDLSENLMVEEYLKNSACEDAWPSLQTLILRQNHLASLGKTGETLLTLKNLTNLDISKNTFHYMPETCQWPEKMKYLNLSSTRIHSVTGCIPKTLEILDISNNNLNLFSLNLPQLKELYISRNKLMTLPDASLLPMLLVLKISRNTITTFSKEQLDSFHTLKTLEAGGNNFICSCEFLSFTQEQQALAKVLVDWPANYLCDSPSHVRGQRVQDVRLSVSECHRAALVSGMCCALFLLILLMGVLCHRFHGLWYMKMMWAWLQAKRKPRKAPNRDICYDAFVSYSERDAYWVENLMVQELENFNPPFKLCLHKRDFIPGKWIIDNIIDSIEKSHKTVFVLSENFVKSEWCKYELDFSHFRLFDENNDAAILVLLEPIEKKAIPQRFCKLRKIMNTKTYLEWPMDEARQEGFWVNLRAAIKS

Row | binding result [1] | Kd [2] [nM] | koff [2] [s⁻¹] | kon [2] [M⁻¹ s⁻¹] | Kd [3] [nM] | koff [3] [s⁻¹] | kon [3] [M⁻¹ s⁻¹] | binding result [4] | Binder
1 | binds | 11.9 | 8.2e-05 | 6770 | 28.9 | 8.95e-05 | 3100 |  | OPN-305 fully humanised anti-Toll-like Receptor 2 monoclonal antibody (antibody, human IgG4 S228P, kappa, V domains shown, made in NS0 cells; also called variant 21) VH: QVQLVQSGSELKKPGASVKLSCKASGFTFTTYGINWVRQAPGQGLEWIGWIYPRDGSTNFNENFKDRATITVDTSASTAYMELSSLRSEDTAVYFCARLTGGTFLDYWGQGTTVTVSS VL: DIVLTQSPATLSLSPGERATLSCRASESVEYYGTSLMQWYQQKPGQPPKLLIFGASNVESGVPDRFSGSGSGTDFTLKISRVEAEDVGMYFCQQSRKLPWTFGGGTKVEIKR
2 |  | 15.6 | 0.000141 | 9700 | 48.2 | 0.00023 | 4820 | binds | T2.5 murine anti-Toll-like Receptor 2 monoclonal antibody (clone T2.5, HyCult Biotechnology, catalogue number 1054) (antibody, mouse IgG1, V domains shown, Murine IgG1, bought; also called OPN301) VH: QVQLQQSGPELVNPGASVKLSCKASGFTFTTYGINWVKQGPGQGLEWIGWIYPRDGSTNFNENFKDKAALTVDTSSSTAYMELHSLTSEDSAVYFCARLTGGTFLDYWGQGTTLTVSS VL: DIVLTQSPASLAVSLGQRATISCRASESVEYYGTSLMQWYQQKPGQPPKLLIFGASNVESGVPVRFSGSGSGTDFSLNIHPVEEDDIVMYFCQQSRKLPWTFGGGTKLEIK
